Measurements: patent publication US20250262210A1 (TRUSTEES OF COLUMBIA UNIVERSITY IN THE CITY OF NEW YORK, published 2025)

Assays:
Assay in all cases: IP/MS, LZTR1 R810W-FLAG, U87
[1] = target: RTTN (human, UniProt Q86VV8 1-2226, limits assumed)
In short: (§1)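 Extracted peptides in 3% acetonitrile/0.1% formic acid ran on a 50 cm C18 column into an Orbitrap Fusion, with MaxQuant identification and spectral counting.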

[2] = target: T1, WDR6 (human, UniProt Q9NNW5 1-1121)
T1 sequence (looked up): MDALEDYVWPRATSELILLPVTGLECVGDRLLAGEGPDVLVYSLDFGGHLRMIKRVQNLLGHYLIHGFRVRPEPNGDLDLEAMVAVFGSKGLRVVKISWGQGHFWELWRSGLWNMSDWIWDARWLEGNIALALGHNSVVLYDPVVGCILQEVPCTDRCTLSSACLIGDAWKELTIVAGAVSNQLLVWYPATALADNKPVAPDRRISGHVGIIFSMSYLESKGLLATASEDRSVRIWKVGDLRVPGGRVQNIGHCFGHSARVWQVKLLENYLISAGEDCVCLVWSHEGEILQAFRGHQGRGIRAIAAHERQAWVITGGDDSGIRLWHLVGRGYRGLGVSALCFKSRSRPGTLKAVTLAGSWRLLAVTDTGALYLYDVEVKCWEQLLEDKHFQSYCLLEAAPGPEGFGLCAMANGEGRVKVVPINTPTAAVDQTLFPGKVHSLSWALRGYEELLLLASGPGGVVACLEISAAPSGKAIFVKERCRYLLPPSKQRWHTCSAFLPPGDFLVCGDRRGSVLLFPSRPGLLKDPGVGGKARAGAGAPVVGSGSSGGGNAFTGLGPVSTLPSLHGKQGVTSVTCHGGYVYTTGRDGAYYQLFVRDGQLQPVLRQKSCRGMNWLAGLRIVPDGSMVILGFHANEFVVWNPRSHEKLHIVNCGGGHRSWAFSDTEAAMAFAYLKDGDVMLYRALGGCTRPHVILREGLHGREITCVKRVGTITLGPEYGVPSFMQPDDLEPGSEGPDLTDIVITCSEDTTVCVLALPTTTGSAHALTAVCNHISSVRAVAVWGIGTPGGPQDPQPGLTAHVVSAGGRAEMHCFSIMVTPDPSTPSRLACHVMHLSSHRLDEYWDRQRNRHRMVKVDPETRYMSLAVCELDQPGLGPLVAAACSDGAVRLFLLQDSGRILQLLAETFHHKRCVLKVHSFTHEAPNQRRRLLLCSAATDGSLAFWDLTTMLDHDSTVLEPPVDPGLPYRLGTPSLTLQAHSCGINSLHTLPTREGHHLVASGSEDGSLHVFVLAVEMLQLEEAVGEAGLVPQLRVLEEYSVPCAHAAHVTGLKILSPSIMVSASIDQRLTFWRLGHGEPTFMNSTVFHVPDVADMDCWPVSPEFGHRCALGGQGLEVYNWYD
In short: as §1

[3] = target: T2, USP4 (human, UniProt Q13107 1-963, limits assumed)
T2 sequence (looked up): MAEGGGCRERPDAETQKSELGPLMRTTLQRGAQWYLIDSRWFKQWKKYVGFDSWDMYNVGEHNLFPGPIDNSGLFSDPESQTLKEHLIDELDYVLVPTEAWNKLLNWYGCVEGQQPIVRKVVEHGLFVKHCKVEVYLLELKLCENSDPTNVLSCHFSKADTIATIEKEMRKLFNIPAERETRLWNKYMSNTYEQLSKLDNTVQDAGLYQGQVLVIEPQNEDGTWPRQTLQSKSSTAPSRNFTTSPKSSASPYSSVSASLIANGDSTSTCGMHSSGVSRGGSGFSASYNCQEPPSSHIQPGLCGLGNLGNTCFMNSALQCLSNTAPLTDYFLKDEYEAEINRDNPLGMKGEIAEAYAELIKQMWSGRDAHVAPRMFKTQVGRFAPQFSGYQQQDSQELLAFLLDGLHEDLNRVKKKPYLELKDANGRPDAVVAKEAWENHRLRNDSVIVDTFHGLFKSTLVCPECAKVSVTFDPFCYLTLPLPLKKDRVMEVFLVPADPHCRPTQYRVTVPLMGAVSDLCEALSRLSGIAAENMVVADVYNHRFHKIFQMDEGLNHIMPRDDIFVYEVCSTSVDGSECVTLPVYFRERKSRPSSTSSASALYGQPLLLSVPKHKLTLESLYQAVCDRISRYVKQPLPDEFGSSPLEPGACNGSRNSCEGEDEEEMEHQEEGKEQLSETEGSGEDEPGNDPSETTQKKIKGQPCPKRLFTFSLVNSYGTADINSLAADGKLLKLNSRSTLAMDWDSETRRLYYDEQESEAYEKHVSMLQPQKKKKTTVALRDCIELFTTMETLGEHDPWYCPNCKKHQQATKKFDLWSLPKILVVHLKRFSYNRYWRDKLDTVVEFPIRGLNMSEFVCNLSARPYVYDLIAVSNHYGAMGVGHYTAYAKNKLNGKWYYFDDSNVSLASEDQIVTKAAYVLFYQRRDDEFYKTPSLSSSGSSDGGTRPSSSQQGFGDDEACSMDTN
In short: as §1

Measured: binding result

Chain of RTTN (Q86VV8 whole entry, the tested form may be a part): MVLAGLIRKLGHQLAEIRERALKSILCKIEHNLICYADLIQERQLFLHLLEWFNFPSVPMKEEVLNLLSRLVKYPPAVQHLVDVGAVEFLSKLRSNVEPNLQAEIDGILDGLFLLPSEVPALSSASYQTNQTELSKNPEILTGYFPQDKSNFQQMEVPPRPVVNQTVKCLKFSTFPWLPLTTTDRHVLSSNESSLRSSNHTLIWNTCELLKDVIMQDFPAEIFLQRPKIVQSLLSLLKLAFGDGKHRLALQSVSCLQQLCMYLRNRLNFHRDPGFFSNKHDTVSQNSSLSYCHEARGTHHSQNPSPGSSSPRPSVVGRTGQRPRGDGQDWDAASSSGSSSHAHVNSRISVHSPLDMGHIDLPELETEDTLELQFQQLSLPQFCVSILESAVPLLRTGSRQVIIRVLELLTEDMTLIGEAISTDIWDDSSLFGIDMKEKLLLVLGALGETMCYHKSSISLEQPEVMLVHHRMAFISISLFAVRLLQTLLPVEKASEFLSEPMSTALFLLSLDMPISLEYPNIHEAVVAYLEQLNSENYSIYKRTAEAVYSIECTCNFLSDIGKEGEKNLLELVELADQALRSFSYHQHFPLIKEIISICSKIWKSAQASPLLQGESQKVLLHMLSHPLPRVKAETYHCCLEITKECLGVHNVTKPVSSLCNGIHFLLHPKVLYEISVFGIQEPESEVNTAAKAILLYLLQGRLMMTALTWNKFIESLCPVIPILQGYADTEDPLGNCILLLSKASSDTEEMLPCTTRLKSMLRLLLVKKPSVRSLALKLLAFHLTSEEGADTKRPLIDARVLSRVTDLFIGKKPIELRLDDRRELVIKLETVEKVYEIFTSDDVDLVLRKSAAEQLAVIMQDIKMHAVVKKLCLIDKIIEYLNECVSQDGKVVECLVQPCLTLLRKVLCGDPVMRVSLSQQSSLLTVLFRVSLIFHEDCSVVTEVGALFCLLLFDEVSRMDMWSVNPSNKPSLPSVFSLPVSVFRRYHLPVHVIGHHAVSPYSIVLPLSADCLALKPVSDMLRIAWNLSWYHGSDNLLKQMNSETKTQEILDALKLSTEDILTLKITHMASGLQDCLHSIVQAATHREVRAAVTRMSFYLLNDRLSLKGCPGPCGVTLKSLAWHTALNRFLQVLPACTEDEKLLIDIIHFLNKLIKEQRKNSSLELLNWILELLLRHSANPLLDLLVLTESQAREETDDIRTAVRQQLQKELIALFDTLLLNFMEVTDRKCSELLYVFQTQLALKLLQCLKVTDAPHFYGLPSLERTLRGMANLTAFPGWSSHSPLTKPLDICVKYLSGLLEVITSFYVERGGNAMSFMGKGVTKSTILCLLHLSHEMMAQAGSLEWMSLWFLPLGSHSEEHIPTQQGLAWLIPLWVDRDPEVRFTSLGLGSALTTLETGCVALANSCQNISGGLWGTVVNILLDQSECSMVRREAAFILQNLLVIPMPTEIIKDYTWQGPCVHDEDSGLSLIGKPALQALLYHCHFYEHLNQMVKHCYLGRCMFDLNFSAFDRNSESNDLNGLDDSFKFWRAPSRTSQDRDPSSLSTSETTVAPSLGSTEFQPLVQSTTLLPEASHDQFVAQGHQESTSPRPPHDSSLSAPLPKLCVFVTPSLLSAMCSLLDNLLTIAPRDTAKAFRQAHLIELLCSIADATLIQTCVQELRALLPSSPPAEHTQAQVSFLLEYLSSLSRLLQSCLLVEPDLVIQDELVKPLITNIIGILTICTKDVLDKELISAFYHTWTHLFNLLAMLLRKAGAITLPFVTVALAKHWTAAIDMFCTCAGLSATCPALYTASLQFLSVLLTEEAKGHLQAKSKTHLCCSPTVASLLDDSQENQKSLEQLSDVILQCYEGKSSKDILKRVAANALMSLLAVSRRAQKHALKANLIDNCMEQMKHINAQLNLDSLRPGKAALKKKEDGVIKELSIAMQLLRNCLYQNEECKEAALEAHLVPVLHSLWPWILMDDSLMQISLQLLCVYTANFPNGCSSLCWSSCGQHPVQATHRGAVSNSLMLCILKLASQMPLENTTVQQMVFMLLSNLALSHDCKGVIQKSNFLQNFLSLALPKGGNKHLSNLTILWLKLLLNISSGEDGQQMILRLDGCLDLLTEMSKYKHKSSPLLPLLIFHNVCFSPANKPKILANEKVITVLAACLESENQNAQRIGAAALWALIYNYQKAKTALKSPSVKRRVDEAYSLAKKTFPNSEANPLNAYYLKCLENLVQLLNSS

B1: LZTR1 R810W-FLAG (other, human, UniProt Q8N653 1-840, looked up)
chain: MAGPGSTGGQIGAAALAGGARSKVAPSVDFDHSCSDSVEYLTLNFGPFETVHRWRRLPPCDEFVGARRSKHTVVAYKDAIYVFGGDNGKTMLNDLLRFDVKDCSWCRAFTTGTPPAPRYHHSAVVYGSSMFVFGGYTGDIYSNSNLKNKNDLFEYKFATGQWTEWKIEGRLPVARSAHGATVYSDKLWIFAGYDGNARLNDMWTIGLQDRELTCWEEVAQSGEIPPSCCNFPVAVCRDKMFVFSGQSGAKITNNLFQFEFKDKTWTRIPTEHLLRGSPPPPQRRYGHTMVAFDRHLYVFGGAADNTLPNELHCYDVDFQTWEVVQPSSDSEVGGAEVPERACASEEVPTLTYEERVGFKKSRDVFGLDFGTTSAKQPTQPASELPSGRLFHAAAVISDAMYIFGGTVDNNIRSGEMYRFQFSCYPKCTLHEDYGRLWESRQFCDVEFVLGEKEECVQGHVAIVTARSRWLRRKITQARERLAQKLEQEAAPVPREAPGVAAGGARPPLLHVAIREAEARPFEVLMQFLYTDKIKYPRKGHVEDVLLIMDVYKLALSFQLCRLEQLCRQYIEASVDLQNVLVVCESAARLQLSQLKEHCLNFVVKESHFNQVIMMKEFERLSSPLIVEIVRRKQQPPPRTPLDQPVDIGTSLIQDMKAYLEGAGAEFCDITLLLDGHPRPAHKAILAARSSYFEAMFRSFMPEDGQVNISIGEMVPSRQAFESMLRYIYYGEVNMPPEDSLYLFAAPYYYGFYNNRLQAYCKQNLEMNVTVQNVLQILEAADKTQALDMKRHCLHIIVHQFTKVSKLPTLWSLSQQLLLDIIDSLASHISDKQCAELGADI
notes: Stably expressed in U87 cells by lentivirus; also called LZTR1-FLAG-R810W; LZTR1 RW; not shown: FLAG tag
binds: all assays above
